# Where a chain is given by its changes, count along the chain named.
# T1: DKK1-APP (human, UniProt O94907 32-266)
# T1 sequence: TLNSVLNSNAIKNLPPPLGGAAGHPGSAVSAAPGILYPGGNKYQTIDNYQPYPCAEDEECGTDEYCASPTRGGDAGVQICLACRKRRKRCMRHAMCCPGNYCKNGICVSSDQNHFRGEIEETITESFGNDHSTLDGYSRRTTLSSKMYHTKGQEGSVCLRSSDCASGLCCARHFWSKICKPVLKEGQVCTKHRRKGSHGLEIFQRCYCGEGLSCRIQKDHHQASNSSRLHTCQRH
# T2: biotinylated human DKK1 (human, UniProt O94907 32-266, biotinylated (sites not given))
# T2 construct: also called biotinylated DKK1; human recombinant, biotinylated DKK1
# T2 sequence: T1 sequence
# T3: cynomolgus DKK1 (cynomolgus monkey (Macaca fascicularis), UniProt A0A7N9IE82 32-266)
# T3 construct: also called cyno DKK1; monkey DKK1 (Novartis)
# T3 sequence: T1 sequence with H114N, T150S, S166T
# T4: mouse DKK1 (R&D Systems) (mouse, UniProt O54908 32-272)
# T4 construct: Bought protein
# T4 sequence (looked up): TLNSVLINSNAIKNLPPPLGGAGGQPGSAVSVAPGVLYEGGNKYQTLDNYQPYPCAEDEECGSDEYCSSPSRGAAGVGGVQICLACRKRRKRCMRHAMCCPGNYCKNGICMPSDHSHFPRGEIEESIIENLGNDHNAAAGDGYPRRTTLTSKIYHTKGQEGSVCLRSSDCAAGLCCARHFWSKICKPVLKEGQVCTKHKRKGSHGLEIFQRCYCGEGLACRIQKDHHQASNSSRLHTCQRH
# T5: recombinant human DKK1 (human, UniProt O94907 32-266)
# T5 construct: also called Dickkopf-1; rhDKK1
# T5 sequence: T1 sequence
# B1: MOR04454 (Fab, V domains shown)
# VH: QVQLVESGGGLVQPGGSLRLSCAASGFTFSNYGLHWVRQAPGKGLEWVSSISYYGSSTYYADSVKGRFTISRDNSKNTLYLQMNSLRAEDTAVYYCARDGSHMDKPPGYVFAFWGQGTLVTVSS
# VL: DIQMTQSPSSLSASVGDRVTITCRASQGIKNYLNWYQQKPGKAPKLLIGAASSLQSGVPSRFSGSGSGTDFTLTISSLQPEDFATYYCLQYYGMPPTFGQGTKVEIKR
# notes: Fab with C-terminal FLAG and 6xHis tags
# B2: MOR04461 (Fab, V domains shown)
# VH: QVQLVESGGGLVQPGGSLRLSCAASGFTFSSYWMSWVRQAPGKGLEWVSGISYSGSNTHYADSVKGRFTISRDNSKNTLYLQMNSLRAEDTAVYYCARMGIDLDYWGQGTLVTVSS
# VL: DIALTQPASVSGSPGQSITISCTGTSSDVGGFNYVSWYQQHPGKAPKLMIHDGSNRPSGVSNRFSGSKSGNTASLTISGLQAEDEADYYCSTWDMTVDFVFGGGTKLTVLG
# notes: as for B1
# B3: MOR04516 (Fab, V domains shown)
# VH: QVQLVQSGAEVKKPGESLKISCKGSGYSFTNYYIGWVRQMPGKGLEWMGIIYPTDSYTNYSPSFQGQVTISADKSISTAYLQWSSLKASDTAMYYCARGIPFRMRGFDYWGQGTLVTVSS
# VL: DIVLTQPPSVSGAPGQRVTISCSGSSSNIGSSFVNWYQQLPGTAPKLLIGNNSNRPSGVPDRFSGSKSGTSASLAITGLQSEDEADYYCASFDMGSPNVVFGGGTKLTVLG
# notes: Fab with C-terminal FLAG and 6xHis tags; also called MOR4516
# B4: MOR04907 (Fab, V domains shown)
# VH: QVQLVESGGGLVQPGGSLRLSCAASGFTFNNYGMTWVRQAPGKGLEWVSGISGSGSYTYYADSVKGRFTISRDNSKNTLYLQMNSLRAEDTAVYYCARTIYMDYWGQGTLVTVSS
# VL: DIVLTQSPATLSLSPGERATLSCRASQNLFSPYLAWYQQKPGQAPRLLIYGASNRATGVPARFSGSGSGTDFTLTISSLEPEDFAVYYCQQYLSLPTTFGQGTKVEIKR
# B5: MOR04914 (Fab, V domains shown)
# VH: B2 VH with G50V, Y53S, S54D, G55S, N57S, H59Y, M99H, L103F, Y105H
# VL: DIALTQPASVSGSPGQSITISCTGTSSDLGGYNYVSWYQQHPGKAPKLMIYDVNNRPSGVSNRFSGSKSGNTASLTISGLQAEDEADYYCQSYTYTPISPVFGGGTKLTVLG
# B6: MOR04954 (Fab, V domains shown)
# VH: QVQLVESGGGLVQPGGSLRLSCAASGFTFSSYWMSWVRQAPGKGLEWVSVIEHKDKGGTTYYAASVKGRFTISRDNSKNTLYLQMNSLRAEDTAVYYCARHGIDFDHWGQGTLVTVSS
# VL: B5 VL with T94A, Y95S, T96G, P97N, I98T, S99K, P100V
# B7: MOR04921 (Fab, V domains shown)
# VH: B2 VH
# VL: DIALTQPASVSGSPGQSITISCTGTSSDVGGFNYVSWYQQHPGKAPKLMIHDGSNRPSGVSNRFSGSKSGNTASLTISGLQAEDEADYYCQTWATSPLSSVFGGGTKLTVLG
# Molecular target: T1, DKK1-APP
# Experiment: cell-based or functional assay
row,Binder,EC50 [nM]
1,B1,83
2,B2,57
3,B3,42

# Molecular target: T2, biotinylated human DKK1
# Experiment: ELISA, biotinylated DKK1 on Neutravidin plates, Fab 1 ug/ml, anti-FLAG-AP detection; single measurement
# Procedure: Binding specificity of the matured Fabs in the presence of 50% human serum (HS) is determined. […] After coating of the antigen, wells are blocked with TBS/0.05% Tween (TBS-T) supplemented with 1% BSA for 1 h at room temperature. Purified Fabs described above are diluted either in TBS/4% BSA or TBS/50% HS at a final concentration of 1 μg/ml, added to the coated and blocked wells and the plates are incubated for 1 h at room temperature. For detection, an anti-FLAG alkaline phosphatase (AP)-conjugated antibody (1:5000 dilution in TBST) and the fluorogenic substrate AttoPhos (Roche) are used. After each incubation, the wells of the microtiter plates are washed with TBST five times, except after the final incubation step with the labeled secondary antibody when wells are washed three times.
# The fluorescence is measured in a TECAN Spectrafluor plate reader.
row,Binder,Binding activity w/50% Human serum vs 4% BSA (%)
1,B4,> 83
2,B5,83
3,B6,> 83
4,B7,93

# Molecular target: T3, cynomolgus DKK1
# Experiment: SPR (Biacore), DKK1 immobilised on CM5 chip, Fab as analyte
# Procedure: (§1) Using these clones, kinetic SPR analysis is performed on a. […] The Fab preparations are applied in concentration series of 16-500 nM at a flow rate of 20 μl/min. Association phase is set to 60 s and dissociation phase to 120 s.
row,Binder,Kd [nM]
1,B1,2.7
2,B2,7.3
3,B3,1.9

# Molecular target: T4, mouse DKK1 (R&D Systems)
# Experiment: as above
# Procedure: as §1
row,Binder,Kd [nM]
1,B1,6
2,B2,12.8
3,B3,2.4

# Molecular target: T5, recombinant human DKK1
# Experiment: as above
# Procedure: as §1
row,Binder,Kd [nM]
1,B1,3.2
2,B2,7.6
3,B3,2.6

# Molecular target: T1, DKK1-APP
# Experiment: cell-based or functional assay
# Remark: another data set of the same source
row,Binder,Luciferase reporter assay; EC50 [nM]
1,B1,83
2,B2,57
3,B3,42

# Molecular target: T5, recombinant human DKK1
# Experiment: cell-based or functional assay
row,Binder,TCF/LEF luc assay w/Kremen: EC50 [nM]
1,B4,0.9
2,B5,1.1
3,B6,1.3
4,B7,0.7

# Molecular target: T3, cynomolgus DKK1
# Experiment: SPR (Biacore), DKK1 immobilised on CM5 chip, Fab as analyte
# Remark: another data set of the same source
# Procedure: as §1
row,Binder,Kd [nM]
1,B1,2.7
2,B2,7.3
3,B3,1.9

# Molecular target: T4, mouse DKK1 (R&D Systems)
# Experiment: as above
# Remark: another data set of the same source
# Procedure: as §1
row,Binder,Kd [nM]
1,B1,6
2,B2,12.8
3,B3,2.4

# Molecular target: T5, recombinant human DKK1
# Experiment: as above
# Remark: another data set of the same source
# Procedure: as §1
row,Binder,Kd [nM]
1,B1,3.2
2,B2,7.6
3,B3,2.6

# Molecular target: T1, DKK1-APP
# Experiment: cell-based or functional assay
# Remark: another data set of the same source
row,Binder,Luciferase reporter assay w/o Kremen; Activity in 15% Human serum (%)
1,B4,54
2,B5,80
3,B6,55
4,B7,26

# Molecular target: T3, cynomolgus DKK1
# Experiment: SPR (Biacore), DKK1 immobilised on CM5 chip, Fab as analyte
# Remark: another data set of the same source
# Procedure: as §1
row,Binder,Kd [nM]
1,B1,2.7
2,B2,7.3
3,B3,1.9

# Molecular target: T4, mouse DKK1 (R&D Systems)
# Experiment: as above
# Remark: another data set of the same source
# Procedure: as §1
row,Binder,Kd [nM]
1,B1,6
2,B2,12.8
3,B3,2.4

# Molecular target: T5, recombinant human DKK1
# Experiment: as above
# Remark: another data set of the same source
# Procedure: as §1
row,Binder,Kd [nM]
1,B1,3.2
2,B2,7.6
3,B3,2.6

# Molecular target: T3, cynomolgus DKK1
# Experiment: solution equilibrium titration (SET), ECL (BioVeris), Fab
# Procedure: (§2) Electrochemiluminescence (ECL) based affinity determination in solution and data evaluation are basically performed as described by Haenel et al., 2005. […] Subsequently, the concentration of unbound Fab is quantified by ECL detection using the M-SERIES® 384 analyzer (BioVeris Europe).
# (§3) Affinities are calculated according to Haenel et al., 2005 Anal Biochem 339.1:182-184.
row,Binder,Kd [nM]
1,B4,0.17
2,B5,0.14
3,B6,0.112

# Molecular target: T4, mouse DKK1 (R&D Systems)
# Experiment: as above
# Procedure: as §2, §3
row,Binder,Kd [nM]
1,B4,0.167
2,B5,0.2
3,B6,0.036

# Molecular target: T5, recombinant human DKK1
# Experiment: as above
# Procedure: as §2, §3
row,Binder,Kd [nM]
1,B4,0.114
2,B5,0.094
3,B6,0.11

# — patent publication US20120023600A1 (Novartis, published 2012)
